The values below come from US20260209320A1 (ALCHEMAB THERAPEUTICS, published 2026).

The target in assay [1] is T1, Mutant Human HTT Exon 1 48Q (GST) (human).
T1 construct: recombinant His- and GST-tagged fusion; also called HTT Exon 1 Q48; 48Q HTT Exon-1
Nature of the assay: HTT sandwich ELISA, biological repeat 3.

Assay [2] has as its target T2, WT Human HTT Exon 1 25Q (GST) (human).
T2 construct: recombinant His- and GST-tagged fusion; also called Wild type Huntingtin (HTT) exon 1
Briefly: HTT sandwich ELISA, biological repeat 2.

Assay [3] deals with T2, WT Human HTT Exon 1 25Q (GST). Briefly: HTT sandwich ELISA, average (one repeat assessed).
The target in assay [4] is T1, Mutant Human HTT Exon 1 48Q (GST). Briefly: HTT sandwich ELISA, biological repeat 2.
Assay [5] has the same target. Briefly: HTT sandwich ELISA, average of repeats.
Assay [6] has the same target. Nature of the assay: HTT sandwich ELISA, biological repeat 1.
Assay [7] shares this target. Briefly: HTT sandwich ELISA; EC50 on HTT Exon 1 25Q over EC50 on HTT Exon 1 48Q.
For the next assay, the target named is T3, Murine HTT antigen (murine).
T3 construct: antigen of the murine HTT direct ELISA; also called murine HTT protein
T3 chain: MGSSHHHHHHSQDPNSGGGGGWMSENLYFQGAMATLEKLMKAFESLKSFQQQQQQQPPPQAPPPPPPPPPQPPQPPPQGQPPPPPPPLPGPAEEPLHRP
Briefly: direct ELISA on coated murine HTT antigen.

Assay [8] concerns the target T2, WT Human HTT Exon 1 25Q (GST). Nature of the assay: HTT sandwich ELISA, biological repeat 1.
For assay [9] the target is unchanged. Nature of the assay: HTT sandwich ELISA, average of repeats.
In another assay the target is T4, human lysozyme (human, UniProt P61626 19-148).
T4 sequence (looked up): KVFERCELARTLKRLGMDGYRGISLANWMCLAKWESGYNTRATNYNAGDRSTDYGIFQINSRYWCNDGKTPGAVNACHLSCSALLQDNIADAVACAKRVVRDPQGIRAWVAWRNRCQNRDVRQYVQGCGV
Briefly: direct ELISA.

In another assay the target is T5, CACNA1A (human, UniProt O00555 1-2506).
T5 construct: whole, on cells; also called Another poly Q protein
T5 sequence (O00555 whole entry): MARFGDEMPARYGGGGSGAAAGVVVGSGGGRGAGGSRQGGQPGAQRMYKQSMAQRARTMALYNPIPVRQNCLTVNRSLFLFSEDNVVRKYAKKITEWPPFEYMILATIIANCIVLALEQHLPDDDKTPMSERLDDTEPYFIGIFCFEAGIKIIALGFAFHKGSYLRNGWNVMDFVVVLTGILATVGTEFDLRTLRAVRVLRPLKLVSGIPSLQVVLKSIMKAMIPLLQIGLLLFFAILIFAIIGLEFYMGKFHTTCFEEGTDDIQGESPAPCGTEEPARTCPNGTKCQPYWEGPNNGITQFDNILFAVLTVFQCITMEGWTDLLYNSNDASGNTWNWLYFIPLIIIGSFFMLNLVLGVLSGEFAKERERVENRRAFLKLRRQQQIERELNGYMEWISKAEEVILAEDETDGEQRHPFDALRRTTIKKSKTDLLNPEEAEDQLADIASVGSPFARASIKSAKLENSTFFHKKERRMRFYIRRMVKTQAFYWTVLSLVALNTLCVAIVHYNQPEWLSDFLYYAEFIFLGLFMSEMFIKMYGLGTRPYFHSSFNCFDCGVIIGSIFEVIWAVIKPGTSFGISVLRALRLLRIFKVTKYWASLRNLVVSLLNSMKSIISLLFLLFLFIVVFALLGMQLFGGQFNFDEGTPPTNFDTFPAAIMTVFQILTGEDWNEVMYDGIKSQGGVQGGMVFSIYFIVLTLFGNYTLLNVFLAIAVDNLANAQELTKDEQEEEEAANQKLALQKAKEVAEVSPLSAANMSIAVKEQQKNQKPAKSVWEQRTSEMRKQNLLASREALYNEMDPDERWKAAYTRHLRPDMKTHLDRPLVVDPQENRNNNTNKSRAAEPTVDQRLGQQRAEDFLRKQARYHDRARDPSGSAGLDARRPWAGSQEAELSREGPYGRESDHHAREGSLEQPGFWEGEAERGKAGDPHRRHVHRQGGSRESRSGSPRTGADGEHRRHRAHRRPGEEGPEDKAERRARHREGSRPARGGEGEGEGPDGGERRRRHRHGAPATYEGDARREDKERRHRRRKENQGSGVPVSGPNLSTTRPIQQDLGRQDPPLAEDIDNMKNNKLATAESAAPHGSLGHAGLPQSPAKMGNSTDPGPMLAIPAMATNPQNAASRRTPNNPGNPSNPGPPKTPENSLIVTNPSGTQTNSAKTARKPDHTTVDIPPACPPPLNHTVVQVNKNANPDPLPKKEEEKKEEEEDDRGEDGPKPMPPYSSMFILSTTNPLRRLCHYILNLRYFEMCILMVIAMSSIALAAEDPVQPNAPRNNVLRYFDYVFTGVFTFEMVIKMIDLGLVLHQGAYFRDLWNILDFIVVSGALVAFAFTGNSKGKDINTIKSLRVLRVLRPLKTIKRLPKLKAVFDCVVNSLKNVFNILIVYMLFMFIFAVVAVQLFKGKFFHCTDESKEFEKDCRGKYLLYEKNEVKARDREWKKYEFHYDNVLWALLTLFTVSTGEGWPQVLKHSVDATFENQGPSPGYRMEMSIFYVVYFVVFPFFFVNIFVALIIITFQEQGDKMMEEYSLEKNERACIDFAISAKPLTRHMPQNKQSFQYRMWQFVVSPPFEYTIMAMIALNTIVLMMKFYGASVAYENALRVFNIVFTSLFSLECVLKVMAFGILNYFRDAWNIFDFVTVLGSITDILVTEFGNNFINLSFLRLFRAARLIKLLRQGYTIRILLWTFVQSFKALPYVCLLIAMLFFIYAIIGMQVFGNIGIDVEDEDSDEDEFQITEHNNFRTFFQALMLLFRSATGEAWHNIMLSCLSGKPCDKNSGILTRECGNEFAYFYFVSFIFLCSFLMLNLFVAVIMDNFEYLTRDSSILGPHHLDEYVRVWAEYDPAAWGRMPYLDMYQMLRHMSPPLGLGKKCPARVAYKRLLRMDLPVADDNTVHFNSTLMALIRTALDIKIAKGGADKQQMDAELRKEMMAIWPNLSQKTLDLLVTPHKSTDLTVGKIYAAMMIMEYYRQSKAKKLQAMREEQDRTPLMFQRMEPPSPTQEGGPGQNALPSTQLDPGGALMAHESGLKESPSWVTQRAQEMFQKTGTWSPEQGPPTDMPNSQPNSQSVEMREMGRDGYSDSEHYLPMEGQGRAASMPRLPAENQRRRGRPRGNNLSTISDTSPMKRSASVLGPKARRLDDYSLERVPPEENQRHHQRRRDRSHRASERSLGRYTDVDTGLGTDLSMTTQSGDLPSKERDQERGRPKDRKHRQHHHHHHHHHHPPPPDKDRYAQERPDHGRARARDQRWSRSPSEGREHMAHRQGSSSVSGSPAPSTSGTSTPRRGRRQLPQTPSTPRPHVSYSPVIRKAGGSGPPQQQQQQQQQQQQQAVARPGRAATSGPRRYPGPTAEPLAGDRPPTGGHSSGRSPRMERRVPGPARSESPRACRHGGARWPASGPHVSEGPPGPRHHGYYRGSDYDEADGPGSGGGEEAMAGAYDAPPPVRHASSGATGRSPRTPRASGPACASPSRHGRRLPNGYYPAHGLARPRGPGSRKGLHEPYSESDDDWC
Nature of the assay: Retrogenix cell microarray, HEK293 cells.

The target of assay [10] is T2, WT Human HTT Exon 1 25Q (GST). Briefly: HTT sandwich ELISA, biological repeat 3.

Positions count from the first letter of the chain named.

T1 sequence (chain, as listed by the source mutant limits assumed): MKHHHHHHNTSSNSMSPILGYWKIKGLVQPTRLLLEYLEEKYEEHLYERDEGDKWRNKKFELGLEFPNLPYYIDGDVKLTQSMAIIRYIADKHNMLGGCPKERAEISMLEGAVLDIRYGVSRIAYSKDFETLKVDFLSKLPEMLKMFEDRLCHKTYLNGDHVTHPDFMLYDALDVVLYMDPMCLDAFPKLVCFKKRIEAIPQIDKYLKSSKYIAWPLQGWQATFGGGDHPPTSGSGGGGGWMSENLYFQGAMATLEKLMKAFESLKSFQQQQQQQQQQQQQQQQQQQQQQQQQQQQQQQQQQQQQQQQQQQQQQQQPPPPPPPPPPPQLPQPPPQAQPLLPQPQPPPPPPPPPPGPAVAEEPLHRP
T2 sequence (chain, as listed by the source limits assumed, change not shown): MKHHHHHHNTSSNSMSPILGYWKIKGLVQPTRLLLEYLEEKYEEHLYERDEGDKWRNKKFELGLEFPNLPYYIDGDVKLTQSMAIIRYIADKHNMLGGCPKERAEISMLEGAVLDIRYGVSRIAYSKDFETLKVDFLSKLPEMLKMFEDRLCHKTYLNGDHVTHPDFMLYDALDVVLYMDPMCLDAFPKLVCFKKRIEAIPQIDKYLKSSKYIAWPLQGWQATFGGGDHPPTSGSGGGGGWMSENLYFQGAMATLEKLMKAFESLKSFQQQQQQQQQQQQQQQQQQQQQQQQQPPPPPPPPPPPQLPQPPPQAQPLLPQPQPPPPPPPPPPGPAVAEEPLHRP

B1: ATL_0005059/NI-302.8F1 (antibody, V domains shown)
VH: EVQLVESGGGLVKPGGSLTISCAASGFTFSNAWMNWVRQAPGKGLEWVGHIRTQAEGGTSDYAAPVKGRFTISRDDSKNTLYLQMNSLKTEDTAVYYCIPPPYYYYYGLDVWGQGTTVTVSS
VL: QSALTQPASVSGSPGQSITISCTGASSDVGTYDLVSWYQQHPGKAPKLIIYEVNKRPSGVSYRFSASKSANTASLTISGLQAEDEAEYYCCSYAGYSTVFGGGTKLTVL
notes: also called ATL_5059; CA_0000274
On to B1, for which the EC50 in assay [1] is 17.5 nM; in assay [2], 19.3 nM; in [3] it was 19.3 nM; in assay [4], 16.2 nM; in assay [5], 17.3 nM; in assay [6] it was 18.1 nM. Further, the “Ratio of EC50 for 25Q:48Q HTT Exon 1” value in [7] came to 1.12.

B2: ATL_0005895 (antibody, V domains shown)
VH: EVQLVESGGGLVKPGGSLRLSCAASGFTFNKAWMSWVRQAPGKGLEWVGRIKSGIDAGTTDYAAPVKGRFTISRDDSKNTLYLQMNSLKTEDTAVYYCIPPPYYYYYGLDVWGQGTTVTVSS
VL: QSALTQPRSVSGSPGQSVTISCTGTSSDVGSYNLVSWYQQHPGKAPKLMIYEVNKRPSGVPDRFSGSKSGATASLTISGLQAEDEADYYCGSYAGTANVFGTGTKVTVL
notes: human IgG1; also called ATL_5895; ATL5895
With B2, the EC50 was determined as 3.2 nM in assay [1]; 3.91 nM in assay [2]; 2.97 nM in assay [8]; 3.83 nM in [4]; 2.08 nM in assay [5]; 0.731 nM in assay [6]. Further, the concentration giving a half-maximal response (EC50) is 3.71 nM in assay [9] and 4.39 nM in [10]. Further, the binding result with Murine HTT antigen is listed as “binds”; with human lysozyme it was “no binding (tested: less than 1 µM)”; with CACNA1A, “no binding (tested: 2 µg/mL antibody)”. The “Ratio of EC50 for 25Q:48Q HTT Exon 1” value in assay [7] is 1.79.

B3: ATL_0005901 (antibody, V domains shown)
VH: B2 VH with N79A
VL: QSALTQPASVSGSPGQSITISCTGTSSDVGGYKLVSWYQQHPGRAPKLMIYEVSKRPSGVSSRFSGSKSGSTASLTISGLQAEDEADYYCSSYAGSSVVFGGGTKLTVL
notes: human IgG1; also called ATL_5901; ATL5901
In the case of B3, the EC50 in [1] is 4.59 nM; in assay [2] it was 4.52 nM; in assay [8], 5.59 nM; in assay [5], 2.4 nM; in assay [6], 1.25 nM; in assay [9], 4.92 nM. In assay [10], the EC50 was 4.73 nM. In addition, the “Ratio of EC50 for 25Q:48Q HTT Exon 1” value in assay [7] stood at 2.05.

B4: ATL_0005567 (antibody, V domains shown)
VH: B2 VH with S35N, A57G, K67Q, L81V, K89N
VL: QSALTQPASVSGSPGQSITISCTGTSSDIGSYNLVSWYQQHPGNAPKPLIYEGSKRPSGVSARFSGSKSGNTASLTISGLQPEDEADYYCSSYAGFSTLVFGGGTKVTVL
notes: human IgG1; also called ATL_5567; ATL5567
Regarding B4, the EC50 was 4.59 nM in [1]; 9.63 nM in [2]; 6.55 nM in assay [4]; 6.39 nM in assay [5]; 8.7 nM in [6]; 7.57 nM in [9]. The EC50 in [10] was determined as 5.95 nM. The binding result with CACNA1A is given as “no binding (tested: 5 µg/mL antibody)”. For the same molecule, in assay [7], the “Ratio of EC50 for 25Q:48Q HTT Exon 1” value came out at 1.18.
